The source of these data is PMC2782368 (Journal of molecular biology, 2009).

The target of assay [1] is T1, murine core RAG1 fused to maltose-binding protein, wild type (murine), P15919.
T1 chain: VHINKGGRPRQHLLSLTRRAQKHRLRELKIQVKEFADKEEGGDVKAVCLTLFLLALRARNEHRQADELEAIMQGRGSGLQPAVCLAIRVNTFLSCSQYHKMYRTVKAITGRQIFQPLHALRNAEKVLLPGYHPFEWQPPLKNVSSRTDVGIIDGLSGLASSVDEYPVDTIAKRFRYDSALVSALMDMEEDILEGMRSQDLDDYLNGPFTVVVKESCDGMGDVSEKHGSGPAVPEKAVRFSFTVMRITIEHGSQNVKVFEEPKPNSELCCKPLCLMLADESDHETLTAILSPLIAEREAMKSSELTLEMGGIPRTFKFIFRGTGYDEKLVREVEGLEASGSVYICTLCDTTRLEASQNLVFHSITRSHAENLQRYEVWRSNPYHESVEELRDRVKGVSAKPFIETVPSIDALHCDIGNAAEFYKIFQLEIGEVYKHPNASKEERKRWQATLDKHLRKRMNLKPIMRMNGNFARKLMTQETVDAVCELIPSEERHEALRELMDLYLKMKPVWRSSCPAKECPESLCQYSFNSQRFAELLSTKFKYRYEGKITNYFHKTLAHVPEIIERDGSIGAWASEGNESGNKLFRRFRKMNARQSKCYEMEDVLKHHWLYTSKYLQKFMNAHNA
Briefly: SEC. Conditions: remark: other sources report otherwise.

The next assay deals with T2, mR1(core) H942A mutant (murine, UniProt P15919 384-1008, H942A).
T2 sequence (looked up): T1 chain with H559A
Briefly: pull-down.

In the next assay the target is T3, mR1(core) E962A mutant (murine, UniProt P15919 384-1008, E962A).
T3 sequence (looked up): T1 chain with E579A
Briefly: pull-down.

For another assay, the target named is T4, mR1(core) H937A mutant (murine, UniProt P15919 384-1008, H937A).
T4 sequence (looked up): T1 chain with H554A
Put plainly: pull-down.

For assay [2], the target named is T5, murine core RAG1 fused to maltose-binding protein, wild type (murine, UniProt P15919 384-1008).
T5 sequence (looked up): T1 chain
Put plainly: pull-down.

Residue numbers refer to the chain shown, from its start.

B1: murine core RAG1 fused to maltose-binding protein, wild type, P15919 384-1008 (domain or fragment)
chain: T1 chain
The term stoichiometry N denotes a count of units in the complex or per binding partner. Turning to B1, in assay [1], the stoichiometry N is 2.

B2: core RAG2 fused to glutathione S-transferase (domain or fragment, murine, UniProt P21784 1-387, looked up)
chain: MSLQMVTVGHNIALIQPGFSLMNFDGQVFFFGQKGWPKRSCPTGVFHFDIKQNHLKLKPAIFSKDSCYLPPLRYPATCSYKGSIDSDKHQYIIHGGKTPNNELSDKIYIMSVACKNNKKVTFRCTEKDLVGDVPEPRYGHSIDVVYSRGKSMGVLFGGRSYMPSTQRTTEKWNSVADCLPHVFLIDFEFGCATSYILPELQDGLSFHVSIARNDTVYILGGHSLASNIRPANLYRIRVDLPLGTPAVNCTVLPGGISVSSAILTQTNNDEFVIVGGYQLENQKRMVCSLVSLGDNTIEISEMETPDWTSDIKHSKIWFGSNMGNGTIFLGIPGDNKQAMSEAFYFYTLRCSEEDLSEDQKIVSNSQTSTEDPGDSTPFEDSEEFCFS
Consider B2, for which the binding result (with mR1(core) H942A mutant; with mR1(core) E962A mutant; in the assay with mR1(core) H937A mutant; in assay [2]) was “binds” each time.
